Source: the DeepSol protein solubility set

experiment: soluble on expression in E. coli; label from the status in PepcDB or PDB records

Row | Sequence | soluble on expression in E. coli
1 | MKTIEIFDPAMCCPTGLCGTNINPELMRIAVVIETLKRQGVVVTRHNLRDEPQVYVSNKTVNQYLQKNGAEALPITLVDGEIAVSKDYPTTKQMSEWTGINLD | soluble
2 | MGSDKIHHHHHHMETGLLLTLLNKTTSLSVNQKTGIEVVSCTFNDLINTFQKAIPNTNIKGQLCIPEYQRPYVWKEKQINRLLDDFIEYYKNTDNDKPLFYLGSIIVHKDEGTLKIIDGQQRITTLLLINSIINKEIKSGIQYTSTTSINNIKRNFSYLKSVHAKDVFDYADTEVLNYIDFDKINVTLVVTATEDLAYTFFETQNTGGVRLSGSDIIKAHHLRAISSEKNINYQARKWEGIESEKIESIIQNLTKIRFWDNRNWRRFPFYRDEKGIKEVLIEEFTENTKHDKEDISFYYSAVKMEAGRAFQMHESNYKQLKQPLSDGNNTLDYINDYVHLHDVLFNRSKKDYRVSDAFYDFNEKLMHGNSGTLFLKELLEICIITYVSRFGFYRLFEASLWLYRSIYSLRVSSSRNVREDSIFKFVFENQFIDNIIEVYTVDELILYLKRFKYTFNTDNLGVKESKDKHIGSLNNYFNEFGKTEDFKKTPKAFDKAFLTAIVTKIKENNEQ | not soluble
3 | MAFPFDILHLEIIRSTLESEKDRCEAKEKFGTIIDNLNGPADIEKYESLVQKAFLHANAETKLESIGFRVGRQLVEKVSKESPKLVTELEIVKFICKDFWSSVFGKQVDNLRTNHQGVYVVQDGRFTTLRSFPEGDQYVKESGYFLAFPCGLLRGALAGLNIRAIVTPTIESVPSVKFHIQVQPK | not soluble
4 | MQYEKVKPPENGEKIRYENGKLIVPDNPIIPYFEGDGIGKDVVPAAIRVLDAAADKIGKEVVWFQVYAGEDAYKLYGNYLPDDTLNAIKEFRVALKGPLTTPVGGGYRSLNVTIRQVLDLYANVRPVYYLKGVPSPIKHPEKVNFVIFRENTEDVYAGIEWPRGSEEALKLIRFLKNEFGVTIREDSGIGIKPISEFATKRLVRMAIRYAIENNRKSVTLVHKGNIMKYTEGAFRDWGYEVAKQEFGEYCITEDELWDKYGGKQPEGKIVVKDRIADNMFQQILTRTDEYDVIALPNLNGDYLSDAAAALIGGLGIAPGSNIGDGIGVFEPVHGSAPKYAGQNKVNPTAEILTGALMFEYIGWKDASEMIKKAVEMTISSGIVTYDIHRHMGGTKVGTREFAEAVVENLQSL | soluble
5 | MFLKSLIFVLTFQFSNGNPVEQVHLSLSGKADEMVVTWLTHDPRKFTC | not soluble
6 | MIIEFLKKLLAGTPETVPAKETKRMTKVLVLYYSSYGHIETMAYAVAEGVESTGAEAVVKRVPELVPEEVAKSSHFKMDQPAPVATVDELAEYDAIIVGAGTRFGTVASQMRNFWDQTGGLWFSGKLVGKVGSAFTSSATQHGGQESTILGFIPTFLHHGMAVVGLPYAFQGQMGVDEIKGGSPYGASTITDGDGSRQPSAIELDAARYQGAHVAKLAAKLSA | not soluble
7 | MGSDKIHHHHHHMKFVVSSNALLKQLTAINGVITTNPVVPILENFLFEIGDGMLVVYASDLQTSMITEIAVEAKAKGSIAVPAKILLDTLKNLPEQPVTFTIDPETYSIEISSDNGRYKLSGENATDFPKVPGVKNGYSVDISTEILNRAISSTIFAASNDELKPAMTGVYVSLTESNATFVATDGHRLIRYRRTDIVSEMANTLIIPKKALNLLKASLPSENTNVKIEYNASNAFFSFNNIKMICRLIDERFPDYENAIPVDNPNVLTITRTDMMNSLKRISIYANKTTHQVRLKLAGSELQISAEDLDFSNEANERLACEFEGQDMEIGFNAKFLVEMLSNLDSPQISMHFSAPNRAGIITPADKDEHEDVLMLVMPVMLNSYA | not soluble
8 | MNKAPHETRVVVGMSGGVDSSVAALLLKEQGYDVIGIFMKNWDDTDENGVCTATEDYEDVVRVCNQIGIPYYAVNFEKQYWDKVFTYFLNEYKAGRTPNPDVMCNKEIKFKAFLEHAMSIGADYIATGHYARVEFRDGEYKMLRGADPNKDQTYFLNQLGQAQLSKVMFPIGHLQKADVRRIAKEAGLATAGKKDSTGICFIGERDFKEFLSHYLPAQPGVMKTLDGEVKGRHDGVMYYTIGQRHGLGIGGSGEPWFVVGKDVRENVLYVAQGFENEYLYSTSLKAVDVNWVSDRKPEAPFRCTAKFRYRQPDVGVTVHPLADGGVEVVFDAPARAVTPGQAVVFYNGEECLGGGTIDEVFRNGEKLWYVG | not soluble
9 | MSLTRKKYTYKMRSYINASHAIRWEAGIGSEHPHTWEIICEIVSSNDHMIKFEDIEEVITETISGLSGKFLNTIAPFDKINPTLENLTNYLFDMITDSLKKINCKLIRIEVGESPTRFYCISLDEGHHHHHH | soluble
10 | MATGTATEKPKIVWNEGRHRFETDDHEAFIEYKMKNDGKVMDLVRTFVPPSKAGLGLASHLCVAAFEHASEHSFSIIPTCSYVSVYISSFLKKLR | not soluble
11 | MAGDPMLNSFKLSLQYILPKLWLTRLAGWGASKRAGWLTKLVIDLFVKYYKVDMTEAQKPDTASYRTFNDFFVRPLRDDVRPLNTDPNILVMPADGVISQLGRIEEDKILQAKGHNYSLEALLAGNYLMADKFRNGTFVTTYLSPRDYHRVHMPCNGILREMIYVPGDLFSVNHLTAQNVPNLFARNERVICLFDTEFGPMAQILVGATIVGSIETVWAGTITPPREGIIKRWTWPEGEHEGSVALLKGQEMGRFKLGSTVINLFAPGKVNLIASLASLSVTKIGQPLATSTETFVAPEVEPAPLPAEEIKAEHDASPLVDNKKDDTLEHHHHHH | soluble
12 | MEQIGLIGYGSMADMIARQLLKHEQIKENELFIETRTKGERLRALMSDYPNVSADPLENWANTCQLILICVPPLHVIETMRRLYPYVNRNTHIVSIAAGVPLRLLEAETEAGISRVIPAITSEAEAGISLVVHSEALAAEKKERLNELLSVFSRVREIKESNLDVASNLTSSAPGFIAAIFEELALSAVRNSSLSKEEAFDFLIHSLYGTGKMLIEKNMSFEETLERVATKGGITGEGAEVIHASVPDVFDEVFERTLRKYELLTEQVGKQTLEHHHHHH | soluble
13 | MQLFHKTVNRRGTHSIKWDTYKNEELIHAWIADMDFEVPQPIQTALKKRIEHPIFGYTLPPENIGDIICNWTKKQYNWDIQKEWIVFSAGIVPALSTSIQAFTKENESVLVQPPIYPPFFEMVTTNNRQLCVSPLQKQNDTYAIDFEHLEKQFQQGVKLMLLCSPHNPIGRVWKKEELTKLGSLCTKYNVIVVADEIHSDIIYADHTHTPFASLSEELAARTITCMAPSKTFNIAGLQASIIIIPNEKLRQAFTSIQYRQGFHGLNIFAYTAMQSAYTECNDWLNEIRFYIEDNAKFACEYIKDHIPTLSVMKPEGSFLLWIDCSALNLSQDERTKLLEEKGKIIVEPGEKYGLGGEEHIGINIGCPRSVLEEILNRLRHTFS | soluble
14 | GWRAKVAGIDPKGSDTHYSEGSSYTFYPYGQAVLLPNIFAHRDVGNTACPGRYGYAQMDNIRNIAKQKYDSIRSGSGATAPAAPSTPSKPAPAPAAPAAPSAPAAPAGTNPIGLLSQGSTPANAGSLVGLAVAAATSLGLIGNLNNIGDVPVIGGLKLSQLQPIIGKIVELLGNNDISRVWRDVNSFAGAALGNARSPIAHYASATGTPIDYALFDNGIVISNPETGTNALWGTIGDLWAQQGFEAGPLGLPTSSVFEVDGLQRVNFQHGYITFNPTTSAVDIQVQ | not soluble
15 | SLQSNILAFTPPAPSASMNVNRTAVVSVTTKDSRAIQEIASYTKHGELIKLNASPSVTQLFQQVMQQNLISKGFRVGQLNGSNAWVTVDVREFGTQVEQGNLRYKLNTKIQATVYVQGAKGSYNKSFNVTHSQEGVFNAGNDEIHKVLSQTFNDIVNNIYQDQEVAAAINQYSN | soluble
16 | MNNSNLAAARNLIQVVTGEWKSRCVYVATRLGLADLIESGIDSDETLAAAVGSDAERIHRLMRLLVAFEIFQGDTRDGYANTPTSHLLRDVEGSFRDMVLFYGEEFHAAWTPACEALLSGTPGFELAFGEDFYSYLKRCPDAGRRFLLAMKASNLAFHEIPRLLDFRGRSFVDVGGGSGELTKAILQAEPSARGVMLDREGSLGVARDNLSSLLAGERVSLVGGDMLQEVPSNGDIYLLSRIIGDLDEAASLRLLGNCREAMAGDGRVVVIERTISASEPSPMSVLWDVHLFMACAGRHRTTEEVVDLLGRGGFAVERIVDLPMETRMIVAARA | soluble
17 | SMSTKGTILVTGGAGYIGSHTAVELLAHGYDVVIADNLVNSKREAIARIEKITGKTPAFHETDVSDERALARIFDAHPITAAIHFAALKAVGESVAKPIEYYRNNLDSLLSLLRVMRERAVKRIVFSSSATVYGVPERSPIDETFPLSATNPYGQTKLMAEQILRDVEAADPSWRVATLRYFNPVGAHESGLIGEDPAGIPNNLMPYVAQVAVGKLEKLRVFGSDYPTPDGTGVRDYIHVVDLARGHIAALDALERRDASLTVNLGTGRGYSVLEVVRAFEKASGRAVPYELVARRPGDVAECYANPAAAAETIGWKAERDLERMCADHWRWQENNPRGFV | soluble
18 | MSNLNNLTSKILNDAEEKKKYILADAEAQKDKIISKKTNRAEADKEEIITKANIEAEVKKARIISNAKLSVRNDMLRAKQDVISKVFNEAIEKLQNLSNGDYKYYVISTLDSLELEGTEVIIINEKDKDIFSNEFLEALNKELESKGKKGSITLNMEGKFNGGFILDRNGIQINNTFEALINSLRGELEFEVNKVLFDLEHHHHHH | soluble
19 | MAHHHHHHMILDLFDLCATPYAKRRSHLHSFMSELEDRLFRAEMALTQRRRSAVSPKEKRALGAVRPINVVVQEVLRETPILCFDEFQTFDVAHAALLAAFFSEAFREGLFFITTSNRPPEDLCRVSASFNAFLPVLRQHCHVVHCADIRDYRVKEAVERHHQLIFLHPNTKTNVERCCGVSSMLSGLVAESLHGSRRTHCGTTAAAS | soluble
20 | MSLSLESLEWMAFDSFLLWRSEESIDARILLVEINQNDNYSLTSTISNSSFIGVIEKLQVYQPKVIGLEVDQHLLINSQEDKLAKIFQKYKNLIANEKILPLQVHSYLDLPNEQITFADQILDNDGKSRRSLLAINTSNGYKLSLAMELARIYLAEKNISLENSRLGKTKLPRFLPNSGGYIRADASGFQVLINFRSGNQRFRTLSGEDIKNGKFNPEWIRDRIVIIGITNTHNQGFIPTSAITSVKSASTQVNKLEIQAHAISQIISAVLDGRPLINTWNDGEGHHHHHH | not soluble
21 | MGSDKIHHHHHHMSFFNKIILIGRLVRDPEERYTLSGTPVTTFTIAVDRVPRKNAPDDAQTTDFFRIVTFGRLAEFARTYLTKGRLVLVEGEMRMRRWETPTGEKRVSPEVVANVVRFMDRKPAETVSETEEELEIPEEDFSSDTFSEDEPPF | soluble
22 | GPGSMSSTQTTSVFFTDVPLFVEERSLRKHFESVGHITDFRLLGPPVGKDFRYGFAEYLDSTSAEEAIARLNGTSFGGRPMKVMSAAATRGRKRQRQQNASHQQQPAPRGGMTFPRGYTDPVLGRDDTSIFECLQGMQQSDAYEAVEQLRVLVLERKNEARKLLENNPALRLAVVMILQHAGRLPFGPLPPEAIQHGGIRVDAPVPAAPAEGEGEKVEPPREQNDEIIEILSKLSEEEVERIVSMTDEDLNRIPDVSQRQQIGVLRERLLELAADLE | soluble
23 | GGMEVLDLVTGPDSVTEIEAFLNPRMGQPPTPESLTEGGQYYGWSRGINLATSDTEDSPGNNTLPTWSMAKLQLPMLNEDLTCDTLQMWEAVSVKTEVVGSGSLLDVHGFNKPTDTVNTKGISTPVEGSQYHVFAVGGEPLDLQGLVTDARTKYKEEGVVTIKTITKKDMVNKDQVLNPISKAKLDKDGMYPVEIWHPDPAKNENTRYFGNYTGGTTTPPVLQFTNTLTTVLLDENGVGPLCKGEGLYLSCVDIMGWRVTRNYDVHHWRGLPRYFKITLRKRWVKNPYP | soluble
